Measured values reported in publication PMC5299047 (Structure (London, England : 1993), 2017).

Target: the molecule itself
Assay: SAXS

B1: Saccharomyces cerevisiae Rnt1p (intact protein) (enzyme, UniProt Q02555 1-471, looked up)
chain: MGSKVAGKKKTQNDNKLDNENGSQQRENINTKTLLKGNLKISNYKYLEVIQLEHAVTKLVESYNKIIELSPNLVAYNEAVNNQDRVPVQILPSLSRYQLKLAAELKTLHDLKKDAILTEITDYENEFDTEQKQPILQEISKADMEKLEKLEQVKREKREKIDVNVYENLNEKEDEEEDEGEDSYDPTKAGDIVKATKWPPKLPEIQDLAIRARVFIHKSTIKDKVYLSGSEMINAHNERLEFLGDSILNSVMTLIIYNKFPDYSEGQLSTLRMNLVSNEQIKQWSIMYNFHEKLKTNFDLKDENSNFQNGKLKLYADVFEAYIGGLMEDDPRNNLPKIRKWLRKLAKPVIEEATRNQVALEKTDKLDMNAKRQLYSLIGYASLRLHYVTVKKPTAVDPNSIVECRVGDGTVLGTGVGRNIKIAGIRAAENALRDKKMLDFYAKQRAAIPRSESVLKDPSQKNKKRKFSDTS
  stoichiometry N: 2
